Laboratory results reported in US20030170895A1, “Methods of making hypermutable cells using PMSR homologs” (priority 2002, published 2003).

Assays:
[1] = system: Yeast cells that express hPMS2-R2; experiment: Chemical mutagen (EMS) plus MMR-defective yeast, ura mutant selection on 5-FOA plates; format: cell-based; conditions: EMS 0-200 pM, 30-120 minutes; PMS2-R2 cultures induced with methanol vs uninduced parental or wild type strain
Excerpt: It has been previously documented that MMR deficiency yields to increased mutation frequency and increased resistance to toxic effects of chemical mutagens (CM) and their respective analogues such as but not limited to those as: ethidium bromide, EMS, MNNG, MNU, Tamoxifen, 8-Hydroxyguanine, as well as others listed but not limited to in publications by: Khromov-Borisov, N. N., et al. (1999) Mutat. Res. 430:55-74; Ohe, T. et al. (1999) Mutat. Res. 429:189-199; Hour, T. C. et al. (1999) Food Chem. Toxicol. 37:569-579; Hrelia, P. et al. (1999) Chem. Biol. Interact. 118:99-111; Garganta, F. et al. (1999) Environ. Mol. Mutagen. 33:75-85; Ukawa-Ishikawa S. et al. (1998) Mutat. Res. 412:99-107; www.ehs.utah.edu/ohh/mutagens; Marcelino, L. A. et al (1998) Cancer Res. 58(13):2857-2862; Koi, M. et al. (1994) Cancer Res. 54:4308-4312. Mismatch repair provokes chromosome aberrations in hamster cells treated with methylating agents or 6thioguanine, but not with ethylating agents.
Yeast cells that express hPMS2-R2 (induced or un-induced) and empty vector control cells are grown as described in Examples 5 and 6) and for 24 hours and diluted into MM medium as described above. Next, the cells in MM are incubated either with or without increasing amounts of ethyl methane sulfonate (EMS) from 0, 1, 10, 50, 100, and 200 pM. […] Mutants are selected and scored as above. […]

wild type yeast cell = conditions: mutagen treatment; Boeke et al. 1984; cited from earlier work
293 cells = experiment: β-galactosidase activity from MMR-sensitive pCAR-OF reporter; format: cell-based; conditions: 293 cells expressing the homolog plus pCAR-OF reporter, grown 17 days; FIG. 5
Excerpt: Cells in which MMR activity is decreased results in MI leading to insertion-deletion mutations within the β-galactosidase gene, a subset of which will restore the open reading frame (ORF) and produce functional enzyme. Cells are grow for 17 days and then harvested for protein lysates to measure β-galactosidase activity generated by each cell line. Cells in which a high rate of mutagenesis has occurred will produce β-galactosidase activity, while cells in which MMR activity is functional will retain background levels of enzymatic activity. Each cell line was tested in two independent experiments (experiment 1 and experiment 2). Extracts were incubated with a calorimetric galactose substrate for 1 hour. Enzyme activity as a function of substrate conversion was measured by optical density at 576 nm as described (Nicolaides, N. C. et al. (1998) Mol. Cell. Biol. 18:1635-1641). […] MI was monitored at the gene level to confirm that genetic alterations occurred within the polynucleotide repeat disrupting the β-galactosidase ORF.

[2] = system: Pichia pastoris yeast cells; experiment: Generation of uracil requiring mutants, 5-FOA selection after methanol induction; format: cell-based
Experimental: Pichia pastoris yeast cells were transformed with pPIC3.5K vector, pPIC3.5K-PMS134, and pPIC3.5K-hR2 as follows. First, 5 ml of YPD (1% yeast extract, 2% bacto-peptone, 1% dextrose) medium was inoculated with a single colony from a YPD plate (same as YPD liquid but add 2% Difco agar to plate) and incubated with shaking overnight at 30° C. The overnight culture was used to inoculate 500 ml of YPD medium (200 ul of overnight culture) and the culture incubated at 30° C. until the optical density at 600 nm reached 1.3 to 1.5. The cells were then spun down (4000×g for 10 minutes), and then washed 2 times in sterile water (one volume each time), then the cells suspended in 20 ml of 1 M sorbitol. The sorbitol/cell suspension was spun down (4,000×g for 10 minutes) and suspended in 1 ml of 1 M sorbitol. 80 ul of the cell suspension was mixed with 5 to 10 ug of linearized plasmid DNA and placed in a 0.2 cm cuvette, pulsed length 5 to 10 milliseconds at field strength of 7,500 V/cm. Next, the cells are diluted in 1 ml of 1 M sorbitol and transferred to a 15 ml tube and incubated at 30° C. for 1 to 2 hours without shaking. Next, the cells are spun out (4,000×G for 10 minutes) and suspended in 100 ul of sterile water, and 50 ul/plate spread onto the appropriate selective medium plate. The plates are incubated for 2 to 3 days at 30° C. and colonies patched out onto YPD plates for further testing. […]

Molecule | frequency of ura mutants [1] | number of ura mutants (wild type yeast cell) | microsatellite instability / β-galactosidase activity (293 cells) | uracil requiring clones on 5-FOA selection medium ([2]; methanol induced culture) | colonies resistant to 5-FOA ([2]; uninduced culture)
CCOS(C)(=O)=O [EMS, ethyl methane sulfonate] | increase in the frequency of ura mutants | low number of ura mutants | – | – | –
PMSR2: human PMS2 related gene/protein, PMS2 homolog, dominant negative mismatch repair inhibitor (SEQ ID NO:17/18) (protein, listed as Homo sapiens) MAQPKQERVARARHQRSETARHQRSETAKTPTLGNRQTPTLGNRQTPRLGIHARPRRRATTSLLTLLLAFGKNAVRCALIGPGSLTSRTRPLTEPLGEKERREVFFPPRPERVEHNVESSRWEPRRRGACGSRGGNFPSPRGGSGVASLERAENSSTEPAKAIKPIDRKSVHQICSGPVVPSLRPNAVKELVENSLDAGATNVDLKLKDYGVDLIEVSGNGCGVEEENFEGFTLKHHTCKIQEFADLTQVETFGFRGEALSSLCALSDVTISTCRVSAKVGTRLVFDHYGKIIQKTPYPRPRGMTVSVKQLFSTLPVHHKEFQRNIKKKRACFPFAFCRDCQFPEASPAMLPVQPVELTPRSTPPHPCSLEDNVITVFSSVKNGPGSSR | – | – | high degree of MI leading to an increase in β-galactosidase activity | have clones that are capable of growth on the selection medium | does not have any colonies that are resistant to 5-FOA
PMSR3: human PMS2 homolog, dominant negative mismatch repair inhibitor (SEQ ID NO:19/20) (protein, listed as Homo sapiens) MCPWRPRLGRRCMVSPREADLGPQKDTRLDLPRSPARAPREQNSLGEVDRRGPREQTRAPATAAPPRPLGSRGAEAAEPQEGLSATVSACFQEQQEMNTLQGPVSFKDVAVDFTQEEWRQLDPDEKIAYGDVMLENYSHLVSVGYDYHQAKHHHGVEVKEVEQGEEPWIMEGEFPCQHSPEPAKAIKPIDRKSVHQICSGPVVLSLSTAVKELVENSLDAGATNIDLKLKDYGVDLIEVSDNGCGVEEENFEGLISFSSETSHM | – | – | high degree of MI leading to an increase in β-galactosidase activity | – | –
